Test results taken from the supplement of paper PMC9170038.

Tested on: MS2 coat protein
Test: apparent KD of MS2 coat protein; designed switch direction (-1 OFF switch, 1 ON switch): -1; higher = weaker reporter binding
Method in brief: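 Each step of the titration lasted 0.8–1.5 h at the lowest concentration and 10–20 min at the highest. The protein, SNAP-549-labelled MS2 coat protein, went from 0.7 or 1.5 nM doubling to 3 µM over RNA switches transcribed on Illumina chips by stalled E. coli RNA polymerase. Normalised cluster fluorescence was curve-fitted, and the per-design median over clusters is given as apparent KD.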

[1] = Eterna round: R95, input ligand: FMN 200 uM
[2] = Eterna round: R95, input ligand: microRNA oligo, concentration not stated
[3] = Eterna round: R95, input ligand: none
[4] = input ligand: microRNA oligo, concentration not stated

Row | Sequence | apparent KD of MS2 coat protein [1] [nM] | apparent KD of MS2 coat protein [2] [nM] | apparent KD of MS2 coat protein [3] [nM] | apparent KD of MS2 coat protein (input ligand: FMN 200 uM) [nM] | apparent KD of MS2 coat protein [4] [nM] | apparent KD of MS2 coat protein (input ligand: none) [nM]
1 | AGUUGUUGUUUCCGUUCUUACAUGAGGAUCACCCAUGUUUCUUGUCGUGCUCGCGUUGCUCGUCAGACUACCUGUUG [salish99_TOv1_r3_064] (puzzle: Sensor v3, turn-off variant 1) | 87.1 | 106 | 138 |  |  | 
2 | AUAAAGCAGUCAGGAUAUAUGAGAGGUCGUUUCAUAGAAGGGACAGCUCGUGCGUGGCUGACAUGAGGAUCACCCAUGUACGUU [Enrizala] (Eterna round: R96, puzzle: Exclusion NG 1) |  |  |  | 229 | 39.1 | 37.6
3 | AUAAAUAAGGAGGAUAUCGUAUCGGAAACGAUACGAGAAGGUCUAACAUGAGGAUCACCCAUGUUCCUCAAUAA [Mat - Exclusion 6 - Eli Mod - D47] (puzzle: Exclusion 6) |  | 34.5 |  |  |  | 
4 | AUAAAUCAUGUAGGAUAUGCGUGGCAAAGCUAUGCAGAAGGACAUGAGGAUCACCCAUGUGCUUCCGUCUGCGUACAGACGGUA [Mat - Exclusion NG 1 - Mod of JL - D33] (Eterna round: R96, puzzle: Exclusion NG 1) |  |  |  | 114 | 80.7 | 107
5 | AUAACAAGCUUUUUGUUCGUAGAACAUGAUGCUCGAGUCACAUGAGGAUCACCCAUGUCAACCAGAUAGAUAGUUGA [JR_SV3TOV2_Sub061] (puzzle: Sensor v3, turn-off variant 2) | 41.2 | 162 | 54.4 |  |  | 
6 | AUAAGCUUUGAGAUCCUUAACAUGAGGAUCACCCAUGUUCGUCUUAUGAUGGUCUGAUCCCUGAGGAUCGGACCGUC [JL-sv1-2.01 Brourd Mod] (puzzle: Sensor v3, turn-off variant 1) | 456 | 13.5 | 416 |  |  | 
7 | AUAAGUAUAUAGGAUAUCUAGCUGGUAACAGCUAGAGAAGGAUGUACAUGAGGAUCACCCAUGUAAAUCUCAAU [Ex6/12-A2] (Eterna round: R97, puzzle: Exclusion 6) |  |  |  | 15.7 |  | 16.1
8 | AUAAUACAUGAGGAUCACCCAUGUGAGGAUAUACGACUCCAACCAAACUGCUUGGACCGUAGAAGGCACAAGGG [Exclusion 1 (MOD1 Esqu)] (Eterna round: R97, puzzle: Exclusion 1) |  |  |  | 22.7 |  | 589
9 | AUAAUGUGAGGAUAUAUGCAUCACGGUGAUACACCGUGAUGAUAGAAGGUACAUGAGGAUCACCCAUGUAGGGC [Mod of Anonveat 16 - Jieux - Exclusion 4] (Eterna round: R97, puzzle: Exclusion 4) |  |  |  | 51.2 |  | 37.8
10 | AUAAUGUGAGGAUAUCAGUCGACUAGCUGCGGCUAGUCGACUGAGAAGGUACAUGAGGAUCACCCAUGUAGAUC [E4/20-A3] (Eterna round: R97, puzzle: Exclusion 4) |  |  |  | 77.9 |  | 29.4
11 | AUAAUGUGAGGAUAUCAGUCGACUAGCUUCGGCUAGUCGACUGAGAAGGUACAUGAGGAUCACCCAUGUAGAUC [E4/20-A1] (Eterna round: R97, puzzle: Exclusion 4) |  |  |  | 59.9 |  | 40.9
12 | AUAAUUUAAGGAUAUACGUGGCGAGCCAGAUAGCUGGGUCUACAUGAGGAUCACCCAUGUAGAAGGUAAGGAUU [Eternabot (L1) Solution 23] (Eterna round: R97, puzzle: Exclusion 2) |  |  |  | 17.8 |  | 18.6
13 | AUACUCGUAGGAUAUGGCAAGCUGAACAUGAGGAUCACCCAUGUGUUCUACAGAUCUGGGUUAGAAGGACGUUAUU [Eternabot (L2) Solution 39] (Eterna round: R97, puzzle: Exclusion 5) |  |  |  | 49.3 |  | 59.7
14 | AUACUCUUUGUGAGGAUAUCGUUUUCUUUACGGUUCGAGAAGGCACAUGAGGAUCACCCAUGUUUGACGUGAAU [JR_BMOE4_Sub094] (puzzle: Brourd's mod of Exclusion 4) |  | 21.2 |  |  |  | 
15 | AUAUAAAUAUAGGAUAUCGAAUUUAUUAAUUAUCGAGAAGGAUAAACAUGAGGAUCACCCAUGUGGUAUCAUGG [Mat - Exclusion 6 - JL Mod - D40] (puzzle: Exclusion 6) |  | 270 |  |  |  | 
16 | AUCAGCUCGUCAGGAUAUACAUGAGGAUCACCCAUGUGAUCAAUAGCAGCUUCGGCUGCAUACAUGUAGAAGGGACGAGCUGAU [ENG2/6-B3] (Eterna round: R96, puzzle: Exclusion NG 2) |  |  |  | 50 | 234 | 821
17 | AUCAGCUCGUGAGGAUAUACAUCACUGCUUCGGCAGUGUAUUAAGAUCACAUGAGGAUCACCCAUGUAGAAGGCACGAGCUGAU [ENG2/2-A3] (Eterna round: R96, puzzle: Exclusion NG 2) |  |  |  | 437 | 31.7 | 38.3

Row | Sequence | apparent KD of MS2 coat protein [1] [nM] | apparent KD of MS2 coat protein [2] [nM] | apparent KD of MS2 coat protein [3] [nM] | apparent KD of MS2 coat protein (input ligand: FMN 200 uM) [nM] | apparent KD of MS2 coat protein [4] [nM] | apparent KD of MS2 coat protein (input ligand: none) [nM]
18 | AUCAGCUCGUGAGGAUAUACAUGAGGAUCACCCAUGUGAUCAAUAGCAGCUUCGGCUGCAUUAAUGUAGAAGGUACGAGCUGAU [ENG2/5-C3] (Eterna round: R96, puzzle: Exclusion NG 2) |  |  |  | 114 | 216 | 961
19 | AUCAGCUCGUGAGGAUAUACAUGAUAGAUCGAUUAAUUAAUUAAUUUAACAUGAGGAUCACCCAUGUAGAAGGUACGAGCUGAU [ENG2/1-C3] (Eterna round: R96, puzzle: Exclusion NG 2) |  |  |  |  | 39.6 | 
20 | AUCAGCUCGUGAGGAUAUAUAUAUACAUGAGGAUCACCCAUGUUAGAUCAGCUUCGGCAGUAUAUAUAGAAGGCACGAGCUGAU [ENG2/15-A2] (Eterna round: R96, puzzle: Exclusion NG 2) |  |  |  | 233 | 90.6 | 79.6
21 | AUCAGCUCGUGAGGAUAUGCACAUGAGGAUCACCCAUGUAAGAUCAAGCUGCUUCGGCAGCAAGUGCAGAAGGUACGAGCUGAU [ENG2/9-C2] (Eterna round: R96, puzzle: Exclusion NG 2) |  |  |  | 206 | 128 | 234
22 | AUCCUCACUUUUUAAGCGAACAUGAGGAUCACCCAUGUACAAGCUUUUUGCUCGGCUUAUAAAGGGUUGGAAACAAC [Alacar Attempt 3] (Eterna round: R97, puzzle: Sensor, turn-off variant 1) |  |  |  | 16.8 |  | 16
23 | AUCCUCUAGAAGGAUAUGCAGGUUGAAUAAACCGCAGAAGGUUUUACAUGAGGAUCACCCAUGUGUAUAACACA [Eternabot (L2) Solution 100] (Eterna round: R97, puzzle: Exclusion 6) |  |  |  | 230 |  | 165
24 | AUCGUGCAGCUUUGCUGUACGAGUACAUGAGGAUCACCCAUGUAGGAUAUGGUACGCUUUGCGUGCUAGAAGGAUAUGUGUUUG [EX ENG3 1.44] (Eterna round: R96, puzzle: Exclusion NG 3) |  |  |  | 58.6 | 29.8 | 43.4
25 | AUCGUGUGAGGAUAUCGAUGUUGGACGUCUAGGUCUGAGCGCGAGAAGGCACAUGAGGAUCACCCAUGUAAGGG [jl-ex4-4.24 ViennaUCT mod] (Eterna round: R97, puzzle: Exclusion 4) |  |  |  | 220 |  | 896
26 | AUGAGACAUGAGGAUCACCCAUGUGAGGAUAUGUAUGGAUGUUGGAAAGAAUGAGAGAACAGAAGGCACGUAGA [JR_Exclu1_Sub063] (puzzle: Exclusion 1) | 93.1 | 104 | 149 |  |  | 
27 | AUGAGCAGACGGAGAUCCAACAUGAGGAUCACCCAUGUCUCAUAAGCUUUUUGUUCAUCUUAUUGUACCUUGGUGCA [Mat - Sensor v3 - turn-off var 1 - JL Mod - D25] (Eterna round: R96, puzzle: Sensor v3, turn-off variant 1) |  |  |  | 242 | 25.4 | 198
28 | AUGAGCAGACGGAGAUCCAACAUGAGGAUCACCCAUGUCUCAUAAGCUUUUUGUUCAUCUUAUUGUACCUUGGUGCA [Mat - Sensor v3 - turn-off var 1 - JL Mod - D25] (puzzle: Sensor v3, turn-off variant 1) | 57.2 | 30.5 | 55.5 |  |  | 
29 | AUGAGGUUAGGAUAUACAUGAGGAUCACCCAUGUUGAAGGGUUAGGUAGGCGGAGCUGGUAGAAGGAACGGAGC [JR_Exclu3_Sub057] (Eterna round: R96, puzzle: Exclusion 3) |  |  |  | 44.3 | 31.9 | 55.3
30 | AUGAGGUUAGGAUAUACAUGAGGAUCACCCAUGUUGAAGGGUUAGGUAGGCGGAGCUGGUAGAAGGAACGGAGC [JR_Exclu3_Sub057] (puzzle: Exclusion 3) |  | 38.8 |  |  |  | 
31 | AUGAUACAUGAGGAUCACCCAUGUGAGGAUAUGAAGUUAUAAUACAUACUAUACAUCUUCAGAAGGCAUAUGUG [E1 S1 6/16] (Eterna round: R97, puzzle: Exclusion 1) |  |  |  | 229 |  | 109
32 | AUGCGUGGCUAGGAUAUUGAGGAAUUUAGUCAGCGAGAAGGAGCCACAUGAGGAUCACCCAUGUGGUGAAGCUC [jl-ex6-4.59 ViennaUCT mod] (Eterna round: R97, puzzle: Exclusion 6) |  |  |  | 70.5 |  | 19.1
33 | AUGCUCCGUGUAGGAUAUCGCCGUACUACUCGGCGAGAAGGACAUGAGGAUCACCCAUGUAUGUUAUUAUCACGUGUGGCGCGC [Design 49] (Eterna round: R96, puzzle: Exclusion NG 1) |  |  |  | 45.7 | 14 | 19.7
